Laboratory results taken from patent US12630600B2 (MEDIMMUNE LIMITED, priority 2022, dated 2026).
Starred links: 1 amine or outer side, 2 acyl side, 3 side chain; linkers in the order of their positions; H or OH if unused. Non-standard residues stand in square brackets, D forms with d. Groups on a side chain read outwards from the residue. No end group written: not given here. *: point of attachment. C18 diacid = O=C(O)CCCCCCCCCCCCCCCCC(=O)*; γGlu = O=C(O)[C@H](CCC(=O)[*:2])N[*:1]; αMeF = C[C@](N)(Cc1ccccc1)C(=O)O; AEEA = NCCOCCOCC(=O)O; Aib = CC(C)(N)C(=O)O

B1: Peptide 427 (peptide)
peptide: H[Aib]QGTFTSDVSK[αMeF]LDTK([AEEA-AEEA-γGlu-C18 diacid])RARDFVQWLLE[Aib]G-NH2
modifications: N-terminus assumed
SMILES: CC(C)C[C@H](NC(=O)[C@H](Cc1c[nH]c2ccccc12)NC(=O)[C@H](CCC(N)=O)NC(=O)[C@@H](NC(=O)[C@H](Cc1ccccc1)NC(=O)[C@H](CC(=O)O)NC(=O)[C@H](CCCNC(=N)N)NC(=O)[C@H](C)NC(=O)[C@H](CCCNC(=N)N)NC(=O)[C@H](CCCCNC(=O)COCCOCCNC(=O)COCCOCCNC(=O)CC[C@H](NC(=O)CCCCCCCCCCCCCCCCC(=O)O)C(=O)O)NC(=O)[C@@H](NC(=O)[C@H](CC(=O)O)NC(=O)[C@H](CC(C)C)NC(=O)[C@](C)(Cc1ccccc1)NC(=O)[C@H](CCCCN)NC(=O)[C@H](CO)NC(=O)[C@@H](NC(=O)[C@H](CC(=O)O)NC(=O)[C@H](CO)NC(=O)[C@@H](NC(=O)[C@H](Cc1ccccc1)NC(=O)[C@@H](NC(=O)CNC(=O)[C@H](CCC(N)=O)NC(=O)C(C)(C)NC(=O)[C@@H](N)Cc1c[nH]cn1)[C@@H](C)O)[C@@H](C)O)C(C)C)[C@@H](C)O)C(C)C)C(=O)N[C@@H](CC(C)C)C(=O)N[C@@H](CCC(=O)O)C(=O)NC(C)(C)C(=O)NCC(N)=O
B2: Peptide 428 (peptide)
peptide: H[Aib]QGTFTSDVSK[αMeF]LDTK([AEEA-AEEA-γGlu-γGlu-C18 diacid])RARDFVQWLLE[Aib]G-NH2
modifications: N-terminus assumed
SMILES: CC(C)C[C@H](NC(=O)[C@H](Cc1c[nH]c2ccccc12)NC(=O)[C@H](CCC(N)=O)NC(=O)[C@@H](NC(=O)[C@H](Cc1ccccc1)NC(=O)[C@H](CC(=O)O)NC(=O)[C@H](CCCNC(=N)N)NC(=O)[C@H](C)NC(=O)[C@H](CCCNC(=N)N)NC(=O)[C@H](CCCCNC(=O)COCCOCCNC(=O)COCCOCCNC(=O)CC[C@H](NC(=O)CC[C@H](NC(=O)CCCCCCCCCCCCCCCCC(=O)O)C(=O)O)C(=O)O)NC(=O)[C@@H](NC(=O)[C@H](CC(=O)O)NC(=O)[C@H](CC(C)C)NC(=O)[C@](C)(Cc1ccccc1)NC(=O)[C@H](CCCCN)NC(=O)[C@H](CO)NC(=O)[C@@H](NC(=O)[C@H](CC(=O)O)NC(=O)[C@H](CO)NC(=O)[C@@H](NC(=O)[C@H](Cc1ccccc1)NC(=O)[C@@H](NC(=O)CNC(=O)[C@H](CCC(N)=O)NC(=O)C(C)(C)NC(=O)[C@@H](N)Cc1c[nH]cn1)[C@@H](C)O)[C@@H](C)O)C(C)C)[C@@H](C)O)C(C)C)C(=O)N[C@@H](CC(C)C)C(=O)N[C@@H](CCC(=O)O)C(=O)NC(C)(C)C(=O)NCC(N)=O
B3: Peptide 423 (peptide)
peptide: H[Aib]QGTFTSDVSK[αMeF]LDKK([AEEA-AEEA-γGlu-C18 diacid])RAQDFVRWLK[Aib]TE-OH
modifications: N-terminus assumed
SMILES: CC(C)C[C@H](NC(=O)[C@H](Cc1c[nH]c2ccccc12)NC(=O)[C@H](CCCNC(=N)N)NC(=O)[C@@H](NC(=O)[C@H](Cc1ccccc1)NC(=O)[C@H](CC(=O)O)NC(=O)[C@H](CCC(N)=O)NC(=O)[C@H](C)NC(=O)[C@H](CCCNC(=N)N)NC(=O)[C@H](CCCCNC(=O)COCCOCCNC(=O)COCCOCCNC(=O)CC[C@H](NC(=O)CCCCCCCCCCCCCCCCC(=O)O)C(=O)O)NC(=O)[C@H](CCCCN)NC(=O)[C@H](CC(=O)O)NC(=O)[C@H](CC(C)C)NC(=O)[C@](C)(Cc1ccccc1)NC(=O)[C@H](CCCCN)NC(=O)[C@H](CO)NC(=O)[C@@H](NC(=O)[C@H](CC(=O)O)NC(=O)[C@H](CO)NC(=O)[C@@H](NC(=O)[C@H](Cc1ccccc1)NC(=O)[C@@H](NC(=O)CNC(=O)[C@H](CCC(N)=O)NC(=O)C(C)(C)NC(=O)[C@@H](N)Cc1c[nH]cn1)[C@@H](C)O)[C@@H](C)O)C(C)C)C(C)C)C(=O)N[C@@H](CCCCN)C(=O)NC(C)(C)C(=O)N[C@H](C(=O)N[C@@H](CCC(=O)O)C(=O)O)[C@@H](C)O
B4: Peptide 425 (peptide)
peptide: H[Aib]QGTFTSDVSK[αMeF]LDKK([AEEA-AEEA-γGlu-C18 diacid])RAQDFVRWLKA[Aib]G-OH
modifications: N-terminus assumed
SMILES: CC(C)C[C@H](NC(=O)[C@H](Cc1c[nH]c2ccccc12)NC(=O)[C@H](CCCNC(=N)N)NC(=O)[C@@H](NC(=O)[C@H](Cc1ccccc1)NC(=O)[C@H](CC(=O)O)NC(=O)[C@H](CCC(N)=O)NC(=O)[C@H](C)NC(=O)[C@H](CCCNC(=N)N)NC(=O)[C@H](CCCCNC(=O)COCCOCCNC(=O)COCCOCCNC(=O)CC[C@H](NC(=O)CCCCCCCCCCCCCCCCC(=O)O)C(=O)O)NC(=O)[C@H](CCCCN)NC(=O)[C@H](CC(=O)O)NC(=O)[C@H](CC(C)C)NC(=O)[C@](C)(Cc1ccccc1)NC(=O)[C@H](CCCCN)NC(=O)[C@H](CO)NC(=O)[C@@H](NC(=O)[C@H](CC(=O)O)NC(=O)[C@H](CO)NC(=O)[C@@H](NC(=O)[C@H](Cc1ccccc1)NC(=O)[C@@H](NC(=O)CNC(=O)[C@H](CCC(N)=O)NC(=O)C(C)(C)NC(=O)[C@@H](N)Cc1c[nH]cn1)[C@@H](C)O)[C@@H](C)O)C(C)C)C(C)C)C(=O)N[C@@H](CCCCN)C(=O)N[C@@H](C)C(=O)NC(C)(C)C(=O)NCC(=O)O
B5: Peptide 422 (peptide)
peptide: H[Aib]QGTFTSDVSK[αMeF]LDRK([AEEA-AEEA-γGlu-C18 diacid])RAQDFVRWLL[Aib]TE-NH2
modifications: N-terminus assumed
SMILES: CC(C)C[C@H](NC(=O)[C@H](Cc1c[nH]c2ccccc12)NC(=O)[C@H](CCCNC(=N)N)NC(=O)[C@@H](NC(=O)[C@H](Cc1ccccc1)NC(=O)[C@H](CC(=O)O)NC(=O)[C@H](CCC(N)=O)NC(=O)[C@H](C)NC(=O)[C@H](CCCNC(=N)N)NC(=O)[C@H](CCCCNC(=O)COCCOCCNC(=O)COCCOCCNC(=O)CC[C@H](NC(=O)CCCCCCCCCCCCCCCCC(=O)O)C(=O)O)NC(=O)[C@H](CCCNC(=N)N)NC(=O)[C@H](CC(=O)O)NC(=O)[C@H](CC(C)C)NC(=O)[C@](C)(Cc1ccccc1)NC(=O)[C@H](CCCCN)NC(=O)[C@H](CO)NC(=O)[C@@H](NC(=O)[C@H](CC(=O)O)NC(=O)[C@H](CO)NC(=O)[C@@H](NC(=O)[C@H](Cc1ccccc1)NC(=O)[C@@H](NC(=O)CNC(=O)[C@H](CCC(N)=O)NC(=O)C(C)(C)NC(=O)[C@@H](N)Cc1c[nH]cn1)[C@@H](C)O)[C@@H](C)O)C(C)C)C(C)C)C(=O)N[C@@H](CC(C)C)C(=O)NC(C)(C)C(=O)N[C@H](C(=O)N[C@@H](CCC(=O)O)C(N)=O)[C@@H](C)O
B6: Peptide 426 (peptide)
peptide: H[Aib]QGTFTSDVSK[αMeF]LDKK([AEEA-AEEA-γGlu-C18 diacid])RAQDFVRWLLR[Aib]K-OH
modifications: N-terminus assumed
SMILES: CC(C)C[C@H](NC(=O)[C@H](Cc1c[nH]c2ccccc12)NC(=O)[C@H](CCCNC(=N)N)NC(=O)[C@@H](NC(=O)[C@H](Cc1ccccc1)NC(=O)[C@H](CC(=O)O)NC(=O)[C@H](CCC(N)=O)NC(=O)[C@H](C)NC(=O)[C@H](CCCNC(=N)N)NC(=O)[C@H](CCCCNC(=O)COCCOCCNC(=O)COCCOCCNC(=O)CC[C@H](NC(=O)CCCCCCCCCCCCCCCCC(=O)O)C(=O)O)NC(=O)[C@H](CCCCN)NC(=O)[C@H](CC(=O)O)NC(=O)[C@H](CC(C)C)NC(=O)[C@](C)(Cc1ccccc1)NC(=O)[C@H](CCCCN)NC(=O)[C@H](CO)NC(=O)[C@@H](NC(=O)[C@H](CC(=O)O)NC(=O)[C@H](CO)NC(=O)[C@@H](NC(=O)[C@H](Cc1ccccc1)NC(=O)[C@@H](NC(=O)CNC(=O)[C@H](CCC(N)=O)NC(=O)C(C)(C)NC(=O)[C@@H](N)Cc1c[nH]cn1)[C@@H](C)O)[C@@H](C)O)C(C)C)C(C)C)C(=O)N[C@@H](CC(C)C)C(=O)N[C@@H](CCCNC(=N)N)C(=O)NC(C)(C)C(=O)N[C@@H](CCCCN)C(=O)O
B7: Peptide 424 (peptide)
peptide: H[Aib]QGTFTSDVSK[αMeF]LDKK([AEEA-AEEA-γGlu-C18 diacid])RAQDFVRWLL[Aib]TK-OH
modifications: N-terminus assumed
SMILES: CC(C)C[C@H](NC(=O)[C@H](Cc1c[nH]c2ccccc12)NC(=O)[C@H](CCCNC(=N)N)NC(=O)[C@@H](NC(=O)[C@H](Cc1ccccc1)NC(=O)[C@H](CC(=O)O)NC(=O)[C@H](CCC(N)=O)NC(=O)[C@H](C)NC(=O)[C@H](CCCNC(=N)N)NC(=O)[C@H](CCCCNC(=O)COCCOCCNC(=O)COCCOCCNC(=O)CC[C@H](NC(=O)CCCCCCCCCCCCCCCCC(=O)O)C(=O)O)NC(=O)[C@H](CCCCN)NC(=O)[C@H](CC(=O)O)NC(=O)[C@H](CC(C)C)NC(=O)[C@](C)(Cc1ccccc1)NC(=O)[C@H](CCCCN)NC(=O)[C@H](CO)NC(=O)[C@@H](NC(=O)[C@H](CC(=O)O)NC(=O)[C@H](CO)NC(=O)[C@@H](NC(=O)[C@H](Cc1ccccc1)NC(=O)[C@@H](NC(=O)CNC(=O)[C@H](CCC(N)=O)NC(=O)C(C)(C)NC(=O)[C@@H](N)Cc1c[nH]cn1)[C@@H](C)O)[C@@H](C)O)C(C)C)C(C)C)C(=O)N[C@@H](CC(C)C)C(=O)NC(C)(C)C(=O)N[C@H](C(=O)N[C@@H](CCCCN)C(=O)O)[C@@H](C)O

molecular target: human GLP-1 receptor (human, UniProt P43220); assay: cell-based or functional assay

| cAMP production EC50 | Binder |
| --- | --- |
| 12.4 pM | B1 |
| 33.1 pM | B2 |
| 26.1 pM | B3 |
| 11.5 pM | B4 |
| 27.6 pM | B5 |
| 7.3 pM | B6 |
| 15.5 pM | B7 |

molecular target: human glucagon receptor (human, UniProt P47871); assay: cell-based or functional assay

| cAMP production EC50 | Binder |
| --- | --- |
| 47.2 pM | B1 |
| 10.5 pM | B2 |
| 2220 pM | B3 |
| 827 pM | B4 |
| 123 pM | B5 |
| 61.2 pM | B6 |
| 129 pM | B7 |
